Experimental data as given in FireProtDB (doi:10.1016/j.jmb.2004.09.082).

Conditions: Escherichia coli (strain K12); pH 7.8; 25 °C; GdnHCl; Chromatography; Tris-HCl 5 mM; KCl 200 mM; reversible: yes; whole UniProt chain shown

B1: Co-chaperonin GroES wild type, P0A6F9 (protein)
chain: MNIRPLHDRVIVKRKEVETKSAGGIVLTGSAAAKSTRGEVLAVGNGRILENGEVKPLDVKVGDIVIFNDGYGVKSEKIDNEEVLIMSESDILAIVEA
denaturant m value: 2.3 kcal/mol/M
unfolding free energy: 2.3 kcal/mol
